Molecular target: HLA-B08:01 (human)
Assay: peptide-MHC-I complex dissociation half-life, 125I-b2m, 37 C
Description: Briefly, synthetic genes encoding biotinylated MHC-I heavy and light chains are expressed in E. coli and purified from inclusion bodies using standard methods. The light chain (β2m) is radio-labeled with iodine (¹²⁵I), and combined with the purified MHC-I heavy chain and peptide of interest at 18° C. to initiate pMHC-I complex formation. These reactions are carried out in streptavidin coated microplates to bind th biotinylated MHC-I heavy chains to the surface and allow measurement of radiolabeled light chain to monitor complex formation. Dissociation is initiated by addition of higher concentrations of unlabeled light-chain and incubation at 37° C. Stability is defined as the length of time in hours it takes for half of the complexes to dissociate, as measured by scintillation counts

B1: QVYRRKHQEL (EML4:ALK) (peptide)
peptide: QVYRRKHQEL
- Stability (T1/2 (h)): 0 h

From US20190307868A1 (published 2019)
